24 molecules from PMC4784862, “DNA Sequence Determinants Controlling Affinity, Stability and Shape of DNA Complexes Bound by the Nucleoid Protein Fis” can be followed below.

What all share (settings): protein: recombinant; chain copies: 2; label: 5'-32P
For data set [1], the target named is T1, Fis WT (UniProt P0A6R3 1-98). Kind of data set: EMSA; t1/2 <0.25 min; EMSA: 20 mM Hepes pH 7.5, 0.15 M NaCl, 5% glycerol, 0.5 mg/ml BSA, 1 mM EDTA, 1 mM DTT, 0.1 nM 32P 27 bp probe, 50 ug/ml poly dI/dC; temperature not stated.
T1 sequence (P0A6R3 whole entry): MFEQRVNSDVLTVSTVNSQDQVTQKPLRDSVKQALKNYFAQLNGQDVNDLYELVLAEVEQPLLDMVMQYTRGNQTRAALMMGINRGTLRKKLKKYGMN
The target in data set [2] is T1, Fis WT. Kind of data set: X-ray crystallography; 2.8 A; EMSA: 20 mM Hepes pH 7.5, 0.15 M NaCl, 5% glycerol, 0.5 mg/ml BSA, 1 mM EDTA, 1 mM DTT, 0.1 nM 32P 27 bp probe, 50 ug/ml poly dI/dC; temperature not stated. Background: In EMSA bound probe runs differently from free probe, usually more slowly.
The target in another data set is Fis R71A (UniProt P0A6R3 1-98, R71A). Kind of data set: EMSA; EMSA: 20 mM Hepes pH 7.5, 0.15 M NaCl, 5% glycerol, 0.5 mg/ml BSA, 1 mM EDTA, 1 mM DTT, 0.1 nM 32P 27 bp probe, 50 ug/ml poly dI/dC; temperature not stated.
Sequence of Fis R71A (P0A6R3 whole entry R71A): as the sequence (P0A6R3 whole entry) above, with R71A counted along it
The target of data set [3] is T2, Fis T75A (UniProt P0A6R3 1-98, T75A). The data set is described as above.
T2 sequence (P0A6R3 whole entry T75A): as the sequence (P0A6R3 whole entry) above, with T75A counted along it
In data set [4] the target is T1, Fis WT. Described as above.
For data set [5], the target named is T1, Fis WT. Kind of data set: EMSA; t1/2 14 min; EMSA: 20 mM Hepes pH 7.5, 0.15 M NaCl, 5% glycerol, 0.5 mg/ml BSA, 1 mM EDTA, 1 mM DTT, 0.1 nM 32P 27 bp probe, 50 ug/ml poly dI/dC; temperature not stated.
Data set [6] deals with T1, Fis WT. Kind of data set: EMSA; affinity as F1, lifetime increased; EMSA: 20 mM Hepes pH 7.5, 0.15 M NaCl, 5% glycerol, 0.5 mg/ml BSA, 1 mM EDTA, 1 mM DTT, 0.1 nM 32P 27 bp probe, 50 ug/ml poly dI/dC; temperature not stated.
Data set [7] has as its target T1, Fis WT. Put plainly: X-ray crystallography; 2.9 A, C2; EMSA: 20 mM Hepes pH 7.5, 0.15 M NaCl, 5% glycerol, 0.5 mg/ml BSA, 1 mM EDTA, 1 mM DTT, 0.1 nM 32P 27 bp probe, 50 ug/ml poly dI/dC; temperature not stated.
Data set [8] has as its target T1, Fis WT. Put plainly: X-ray crystallography; EMSA: 20 mM Hepes pH 7.5, 0.15 M NaCl, 5% glycerol, 0.5 mg/ml BSA, 1 mM EDTA, 1 mM DTT, 0.1 nM 32P 27 bp probe, 50 ug/ml poly dI/dC; temperature not stated.
For data set [9], the target named is T1, Fis WT. Kind of data set: EMSA; t1/2 22 min; EMSA: 20 mM Hepes pH 7.5, 0.15 M NaCl, 5% glycerol, 0.5 mg/ml BSA, 1 mM EDTA, 1 mM DTT, 0.1 nM 32P 27 bp probe, 50 ug/ml poly dI/dC; temperature not stated.
The target of data set [10] is T1, Fis WT. Kind of data set: EMSA; t1/2 4 min; EMSA: 20 mM Hepes pH 7.5, 0.15 M NaCl, 5% glycerol, 0.5 mg/ml BSA, 1 mM EDTA, 1 mM DTT, 0.1 nM 32P 27 bp probe, 50 ug/ml poly dI/dC; temperature not stated.
The target of the next data set is Fis N73A (UniProt P0A6R3 1-98, N73A). Put plainly: EMSA; EMSA: 20 mM Hepes pH 7.5, 0.15 M NaCl, 5% glycerol, 0.5 mg/ml BSA, 1 mM EDTA, 1 mM DTT, 0.1 nM 32P 27 bp probe, 50 ug/ml poly dI/dC; temperature not stated.
Sequence of Fis N73A (P0A6R3 whole entry N73A): as the sequence (P0A6R3 whole entry) above, with N73A counted along it
Data set [11] deals with T2, Fis T75A. Kind of data set: EMSA; error as printed; EMSA: 20 mM Hepes pH 7.5, 0.15 M NaCl, 5% glycerol, 0.5 mg/ml BSA, 1 mM EDTA, 1 mM DTT, 0.1 nM 32P 27 bp probe, 50 ug/ml poly dI/dC; temperature not stated.
The target in data set [12] is T1, Fis WT. Put plainly: EMSA; t1/2 41 min; Table 3 gives error 0.05; EMSA: 20 mM Hepes pH 7.5, 0.15 M NaCl, 5% glycerol, 0.5 mg/ml BSA, 1 mM EDTA, 1 mM DTT, 0.1 nM 32P 27 bp probe, 50 ug/ml poly dI/dC; temperature not stated.
For data set [13], the target named is T1, Fis WT. Kind of data set: X-ray crystallography; 2.7 A; EMSA: 20 mM Hepes pH 7.5, 0.15 M NaCl, 5% glycerol, 0.5 mg/ml BSA, 1 mM EDTA, 1 mM DTT, 0.1 nM 32P 27 bp probe, 50 ug/ml poly dI/dC; temperature not stated.
The target of data set [14] is T1, Fis WT. Put plainly: EMSA; t1/2 8 min; EMSA: 20 mM Hepes pH 7.5, 0.15 M NaCl, 5% glycerol, 0.5 mg/ml BSA, 1 mM EDTA, 1 mM DTT, 0.1 nM 32P 27 bp probe, 50 ug/ml poly dI/dC; temperature not stated.
Data set [15] addresses T1, Fis WT. Put plainly: EMSA; t1/2 4 min; EMSA: 20 mM Hepes pH 7.5, 0.15 M NaCl, 5% glycerol, 0.5 mg/ml BSA, 1 mM EDTA, 1 mM DTT, 0.1 nM 32P 27 bp probe, 50 ug/ml poly dI/dC; temperature not stated. The source holds these as a separate data set.
Data set [16] addresses T1, Fis WT. Kind of data set: EMSA; fold printed as 6; EMSA: 20 mM Hepes pH 7.5, 0.15 M NaCl, 5% glycerol, 0.5 mg/ml BSA, 1 mM EDTA, 1 mM DTT, 0.1 nM 32P 27 bp probe, 50 ug/ml poly dI/dC; temperature not stated.

B1: INV (dsDNA)
DNA 1: TTTAAAGTTTGAATTTTGAGCTTTAAA
DNA 2: TTTAAAGCTCAAAATTCAAACTTTAAA
The term Kd denotes the concentration at which binding is half-saturated. Consider B1, for which, in the data set with Fis WT [1], the equilibrium dissociation constant (Kd) was 33 ± 3 nM.

B2: F32 (dsDNA)
DNA 1: AAATTTGGAGGAATTTTCTCCAAATTT
DNA 2: AAATTTGGAGAAAATTCCTCCAAATTT
As to B2, the binding result in the data set with Fis WT [2] is given as “binds”. Besides, the Kd in the data set with Fis R71A is 73 ± 11 nM; with Fis T75A [3], 76 ± 10 nM.

B3: INV±8G (dsDNA)
DNA 1: TTTAAGGTTTGAATTTTGAGCCTTAAA
DNA 2: TTTAAGGCTCAAAATTCAAACCTTAAA
Consider B3, for which, in the data set with Fis WT [4], the Kd is 250 ± 20 nM.

B4: F28 (dsDNA)
DNA 1: AAATTTGTTTGAGCGTTGAGCAAATTT
DNA 2: AAATTTGCTCAACGCTCAAACAAATTT
B4: in the data set with Fis R71A, the Kd turned out to be 470 ± 100 nM.

B5: F1±8C (dsDNA)
DNA 1: AAATTCGTTTGAATTTTGAGCGAATTT
DNA 2: AAATTCGCTCAAAATTCAAACGAATTT
Consider B5, for which the Kd in the data set with Fis WT [5] came out at 0.7 ± 0.2 nM.

B6: F1±8U (dsDNA)
DNA 1: AAATTUGTTTGAATTTTGAGCAAATTT
DNA 2: AAATTUGCTCAAAATTCAAACAAATTT
modifications: deoxyuridine for T at ±8 in DNA
In the case of B6, in the data set with Fis WT [6], the binding result is “binds”.

B7: F35 (dsDNA)
DNA 1: AAATTAGTTTGAATCTCGAGCTAATTT
DNA 2: AAATTAGCTCGAGATTCAAACTAATTT
With B7, the binding result with Fis WT [7] is “binds”.

B8: F1±8A (dsDNA)
DNA 1: AAATTAGTTTGAATTTTGAGCTAATTT
DNA 2: AAATTAGCTCAAAATTCAAACTAATTT
For B8, the binding result with Fis WT [8] is “binds”.

B9: F1±9A (dsDNA)
DNA 1: AAATATGTTTGAATTTTGAGCATATTT
DNA 2: AAATATGCTCAAAATTCAAACATATTT
B9: in the data set with Fis WT [9], the dissociation constant (Kd) was 0.5 ± 0.2 nM.

B10: INV±9-10T (dsDNA)
DNA 1: TTTATTGTTTGAATTTTGAGCAATAAA
DNA 2: TTTATTGCTCAAAATTCAAACAATAAA
Regarding B10, the Kd with Fis WT [4] was 0.4 ± 0.1 nM.

B11: INV±8T (dsDNA)
DNA 1: TTTAATGTTTGAATTTTGAGCATTAAA
DNA 2: TTTAATGCTCAAAATTCAAACATTAAA
For the molecule B11, the dissociation constant (Kd) in the data set with Fis WT [10] is 2.3 ± 0.7 nM.

B12: F16 (dsDNA)
DNA 1: GCGGTTGTTTGAATTTTGAGCAACCGC
DNA 2: GCGGTTGCTCAAAATTCAAACAACCGC
As for B12, the Kd in the data set with Fis WT [4] was determined as 0.5 ± 0.2 nM.

B13: F14 (dsDNA)
DNA 1: GGGTTTGTTTGAATTTTGAGCAAACCC
DNA 2: GGGTTTGCTCAAAATTCAAACAAACCC
Regarding B13, in the data set with Fis WT [4], the Kd was 0.5 ± 0.1 nM.

B14: INV-CAT (dsDNA)
DNA 1: TTTCATGTTTGAATTTTGAGCATGAAA
DNA 2: TTTCATGCTCAAAATTCAAACATGAAA
B14: the equilibrium dissociation constant (Kd) in the data set with Fis WT [4] stood at 2.9 ± 1 nM.

B15: F15 (dsDNA)
DNA 1: CCCTTTGTTTGAATTTTGAGCAAAGGG
DNA 2: CCCTTTGCTCAAAATTCAAACAAAGGG
In the case of B15, the dissociation constant (Kd) with Fis WT [4] is 0.4 ± 0.2 nM.

B16: INV±8C (dsDNA)
DNA 1: TTTAACGTTTGAATTTTGAGCGTTAAA
DNA 2: TTTAACGCTCAAAATTCAAACGTTAAA
In the case of B16, the Kd in the data set with Fis WT [4] was found to be 6 ± 2 nM.

B17: INV-GAT (dsDNA)
DNA 1: TTTGATGTTTGAATTTTGAGCATCAAA
DNA 2: TTTGATGCTCAAAATTCAAACATCAAA
Consider B17, for which, in the data set with Fis WT [4], the Kd is 2 ± 0.6 nM.

B18: F1 (±8T) (dsDNA)
DNA 1: AAATTTGTTTGAATTTTGAGCAAATTT
DNA 2: AAATTTGCTCAAAATTCAAACAAATTT
With B18, the Kd with Fis R71A came out at 0.5 ± 0.2 nM; with Fis N73A, 29 ± 0.2 nM; with Fis T75A [11], 0.3 ± 0.8 nM; with Fis WT [12] it was 0.2 ± 0.07 nM.

B19: F31 (dsDNA)
DNA 1: AAATTTGTAGGAATTTTCTGCAAATTT
DNA 2: AAATTTGCAGAAAATTCCTACAAATTT
As for B19, the binding result with Fis WT [13] is on record as “binds”.

B20: F34 (dsDNA)
DNA 1: AAGCTTGTTTGAATTTTGAGCAACGTT
DNA 2: AACGTTGCTCAAAATTCAAACAAGCTT
For B20, the dissociation constant (Kd) with Fis WT [14] was determined as 0.2 ± 0.1 nM.

B21: F18 (dsDNA)
DNA 1: AAATTTGTTGGAATTTTCAGCAAATTT
DNA 2: AAATTTGCTGAAAATTCCAACAAATTT
For the molecule B21, in the data set with Fis WT [15], the binding signal is 10 fold weaker than F1.

B22: F1±8G (dsDNA)
DNA 1: AAATTGGTTTGAATTTTGAGCCAATTT
DNA 2: AAATTGGCTCAAAATTCAAACCAATTT
With B22, the equilibrium dissociation constant (Kd) with Fis R71A turned out to be 450 ± 20 nM; in the data set with Fis T75A [3] it was 48 ± 5 nM. In addition, the binding result with Fis WT [8] was “binds”.

B23: F33 (dsDNA)
DNA 1: AAAGGTGTTTGAATTTTGAGCACCTTT
DNA 2: AAAGGTGCTCAAAATTCAAACACCTTT
In the case of B23, the dissociation constant (Kd) with Fis WT [16] turned out to be 0.6 ± 0.1 nM.

B24: F27 (dsDNA)
DNA 1: AAATTTGTTTGAACTTTGAGCAAATTT
DNA 2: AAATTTGCTCAAAGTTCAAACAAATTT
On to B24, for which the results for the Kd with Fis R71A, with Fis WT [4] and with Fis T75A [3] were 2.8 ± 0.5 nM, 0.2 ± 0.1 nM and 3.5 ± 0.9 nM, respectively.
